Test results taken from patent US6596261B1, “Method of administering a medicinal aerosol formulation” (Aeropharm Technology Incorporated, priority 2000, dated 2003).
Ends that are not written are not given here.

Test: Pharmacokinetics of amylin in rabbits after intravenous versus intrapulmonary administration
Format: in vivo, New Zealand rabbits
Details: for Vd: average of six; for Ke: elimination rate constant; for K12: rate constant central to peripheral compartment; for K21: rate constant peripheral to central compartment
Description: The table listed below discloses the average measured results
Referring to FIG. 2, the experimental results obtained were compared to the results calculated using formulae (I) through (VI). The calculated data is totally consistent with the experimental data of this EXAMPLE.

[1] = Intrapulmonary Administration, dose: 7.5 μg/kg
[2] = Intravenous Administration, dose: 5.0 μg/kg

amylin (KCNTATCATQRLANFLVHSSNNFGAILSSTNVGSNTY; not fully specified (C-terminus, bridges); cysteine pairing not given here; UniProt P10997 34-70, looked up) [β-cell hypoglycemic medicament; natural, synthetic, semi-synthetic or recombinant amylin or amylin analogs]
AUC (Area under the blood concentration time course curve) [1]: 16.9670 ng·min/mL
F (Bioavalability), Percent of administered drug absorbed from the lung dose [1]: 24.9%
T1/2 (Half life of the drug in the body) [1]: 26.3819 min
Vd [1]: 63.0911 L
Ke [1]: 0.02627 min⁻¹
K12 [1]: 0.03211 min⁻¹
K21 [1]: 0.01774 min⁻¹
AUC (Area under the blood concentration time course curve) [2]: 45.4016 ng·min/mL
T1/2 (Half life of the drug in the body) [2]: 17.1771 min
Vd [2]: 9.5246 L
Ke [2]: 0.0403 min⁻¹
K12 [2]: 0.0180 min⁻¹
K21 [2]: 0.0075 min⁻¹
